Laboratory results published in IntAct's records for PubMed 12023303.

B1: Transcription factor HY5-like (Arabidopsis thaliana (Mouse-ear cress)), Q8W191-1 (parent)
chain: MSLQRPNGNSSSSSSHKKHKTEESDEELLMVPDMEAAGSTCVLSSSADDGVNNPELDQTQNGVSTAKRRRGRNPVDKEYRSLKRLLRNRVSAQQARERKKVYVSDLESRANELQNNNDQLEEKISTLTNENTMLRKMLINTRPKTDDNH
partner: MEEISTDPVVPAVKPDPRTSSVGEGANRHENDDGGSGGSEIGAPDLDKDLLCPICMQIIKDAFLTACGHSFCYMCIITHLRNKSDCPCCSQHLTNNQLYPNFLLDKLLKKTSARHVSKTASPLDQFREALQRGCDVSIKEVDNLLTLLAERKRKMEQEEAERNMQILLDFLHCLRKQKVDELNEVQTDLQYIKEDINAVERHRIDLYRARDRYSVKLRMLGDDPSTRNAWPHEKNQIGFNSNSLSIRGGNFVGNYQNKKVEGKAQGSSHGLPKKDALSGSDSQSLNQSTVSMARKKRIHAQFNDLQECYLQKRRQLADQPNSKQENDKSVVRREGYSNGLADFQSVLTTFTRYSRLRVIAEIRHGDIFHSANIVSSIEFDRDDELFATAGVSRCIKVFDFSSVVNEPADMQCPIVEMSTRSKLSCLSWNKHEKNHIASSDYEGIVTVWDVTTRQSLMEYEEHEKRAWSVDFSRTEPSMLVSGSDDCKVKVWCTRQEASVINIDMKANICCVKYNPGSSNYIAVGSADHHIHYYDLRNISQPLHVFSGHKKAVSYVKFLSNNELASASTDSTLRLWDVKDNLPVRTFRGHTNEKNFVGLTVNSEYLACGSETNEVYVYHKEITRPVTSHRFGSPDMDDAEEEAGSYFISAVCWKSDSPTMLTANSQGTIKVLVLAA
B2: E3 ubiquitin-protein ligase COP1 (Arabidopsis thaliana (Mouse-ear cress)), P43254 (parent)
chain: B1 partner
partner: B1 chain

Variants of: B1
Details: with cop1_arath COP1, P43254

Effect of a mutation on the interaction, decreasing interaction:
V31A;P32A

Variants of: B2
Details: with HYH, Q8W191-1

Effect of a mutation on the interaction, decreasing interaction:
W467A
K550E
K422E
R465E
G524E
